In the supplement of paper PMC11316812:
± gives the standard deviation of the averaged measurements.

Tests used:
hTERT-HMEC = assay: percentage of EdU-negative (G0-arrested) nuclei per well, 72 h; higher = more G0 arrest; settings: reference: sequence is the full UniProt precursor, the tested protein was the secreted form or ectodomain
MCF7 = assay: as above; settings: reference: sequence is the full UniProt precursor, the tested protein was the secreted form or ectodomain
[1] = protein concentration 0.03125 µM
[2] = protein concentration 0.3125 µM
[3] = protein concentration 0.01675 µM
[4] = protein concentration 0.1675 µM
[5] = protein concentration 0.0262857 µM
[6] = protein concentration 0.262857 µM
[7] = protein concentration 0.0225 µM
[8] = protein concentration 0.02657 µM
[9] = protein concentration 0.2657 µM
[10] = protein concentration 0.009215 µM
[11] = protein concentration 0.09215 µM
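Further: secreted proteins added to cultured cells, EdU pulse at the end, nuclei found by Hoechst imaging, EdU status from nuclear versus surrounding ring intensity ratio, PBS as neutral control.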

## MFIKVMFGAGCSVLVNTSCRLVNLTAHLRQKAGLPPDATIALLAEDGNLVSLEEDLKEGASRAQTMGNSLLKERAIYVLVRIIKGEDMASTRYESLLENLDDHYPELAEELRRLSGLSSVGHNWRKRMGTRRGRHEQSPTSRPRKGPD [Q8WYQ4]
hTERT-HMEC; [1]
  percentage of EdU-negative: 5.45 ± 0.84%
hTERT-HMEC; [2]
  percentage of EdU-negative: 5.68 ± 0.37%
MCF7; [1]
  percentage of EdU-negative: 28 ± 1.6%
MCF7; [2]
  percentage of EdU-negative: 25.79 ± 0.035%

## MFKCWSVVLVLGFIFLESEGRPTKEGGYGLKSYQPLMRLRHKQEKNQESSRVKGFMIQDGPFGSCENKYCGLGRHCVTSRETGQAECACMDLCKRHYKPVCGSDGEFYENHCEVHRAACLKKQKITIVHNEDCFFKGDKCKTTEYSKMKNMLLDLQNQKYIMQENENPNGDDISRKKLLVDQMFKYFDADSNGLVDINELTQVIKQEELGKDLFDCTLYVLLKYDDFNADKHLALEEFYRAFQVIQLSLPEDQKLSITAATVGQSAVLSCAIQGTLRPPIIWKRNNIILNNLDLEDINDFGDDGSLYITKVTTTHVGNYTCYADGYEQVYQTHIFQVNVPPVIRVYPESQAREPGVTASLRCHAEGIPKPQLGWLKNGIDITPKLSKQLTLQANGSEVHISNVRYEDTGAYTCIAKNEAGVDEDISSLFVEDSARKTLANILWREEGLGIGNMFYVFYEDGIKVIQPIECEFQRHIKPSEKLLGFQDEVCPKAEGDEVQRCVWASAVNVKDKFIYVAQPTLDRVLIVDVQSQKVVQAVSTDPVPVKLHYDKSHDQVWVLSWGTLEKTSPTLQVITLASGNVPHHTIHTQPVGKQFDRVDDFFIPTTTLIITHMRFGFILHKDEAALQKIDLETMSYIKTINLKDYKCVPQSLAYTHLGGYYFIGCKPDSTGAVSPQVMVDGVTDSVIGFNSDVTGTPYVSPDGHYLVSINDVKGLVRVQYITIRGEIQEAFDIYTNLHISDLAFQPSFTEAHQYNIYGSSSTQTDVLFVELSSGKVKMIKSLKEPLKAEEWPWNRKNRQIQDSGLFGQYLMTPSKDSLFILDGRLNKLNCEITEVEKGNTVIWVGDA [Q8N475]
hTERT-HMEC; [3]
  percentage of EdU-negative: 4.72 ± 1.2%
hTERT-HMEC; [4]
  percentage of EdU-negative: 6.54 ± 0.16%
MCF7; [3]
  percentage of EdU-negative: 24.2 ± 4.5%
MCF7; [4]
  percentage of EdU-negative: 26.4 ± 1.8%

## MFLKAVVLTLALVAVAGARAEVSADQVATVMWDYFSQLSNNAKEAVEHLQKSELTQQLNALFQDKLGEVNTYAGDLQKKLVPFATELHERLAKDSEKLKEEIGKELEELRARLLPHANEVSQKIGDNLRELQQRLEPYADQLRTQVSTQAEQLRRQLTPYAQRMERVLRENADSLQASLRPHADELKAKIDQNVEELKGRLTPYADEFKVKIDQTVEELRRSLAPYAQDTQEKLNHQLEGLTFQMKKNAEELKARISASAEELRQRLAPLAEDVRGNLRGNTEGLQKSLAELGGHLDQQVEEFRRRVEPYGENFNKALVQQMEQLRQKLGPHAGDVEGHLSFLEKDLRDKVNSFFSTFKEKESQDKTLSLPELEQQQEQQQEQQQEQVQMLAPLES
hTERT-HMEC; [5]
  percentage of EdU-negative: 5.7 ± 1%
hTERT-HMEC; [6]
  percentage of EdU-negative: 7.022 ± 0.041%
MCF7; [5]
  percentage of EdU-negative: 22.7 ± 1.3%
MCF7; [6]
  percentage of EdU-negative: 27 ± 1.5%

## MFPFYSCWRTGLLLLLLAVAVRESWQTEEKTCDLVGEKGKESEKELALVKRLKPLFNKSFESTVGQGSDTYIYIFRVCREAGNHTSGAGLVQINKSNGKETVVGRLNETHIFNGSNWIMLIYKGGDEYDNHCGKEQRRAVVMISCNRHTLADNFNPVSEERGKVQDCFYLFEMDSSLACSPEISHLSVGSILLVTFASLVAVYVVGGFLYQRLVVGAKGMEQFPHLAFWQDLGNLVADGCDFVCRSKPRNVPAAYRGVGDDQLGEESEERDDHLLPM
hTERT-HMEC; [1]
  percentage of EdU-negative: 5.26 ± 0.29%
hTERT-HMEC; [2]
  percentage of EdU-negative: 5.43 ± 0.57%
MCF7; [1]
  percentage of EdU-negative: 25.21 ± 0.13%
MCF7; [2]
  percentage of EdU-negative: 24.8 ± 1.1%

## MFSTKALLLAGLISTALAGPWANICAGKSSNEIRTCDRHGCGQYSAQRSQRPHQGVDILCSAGSTVYAPFTGMIVGQEKPYQNKNAINNGVRISGRGFCVKMFYIKPIKYKGPIKKGEKLGTLLPLQKVYPGIQSHVHIENCDSSDPTAYL
hTERT-HMEC; [7]
  percentage of EdU-negative: 4.82 ± 1.7%
hTERT-HMEC; protein concentration 0.225 µM
  percentage of EdU-negative: 7.53 ± 0.43%
MCF7; [7]
  percentage of EdU-negative: 23.8 ± 1.3%
MCF7; protein concentration 0.225 µM
  percentage of EdU-negative: 26.3 ± 0.79%

## MFTIKLLLFIVPLVISSRIDQDNSSFDSLSPEPKSRFAMLDDVKILANGLLQLGHGLKDFVHKTKGQINDIFQKLNIFDQSFYDLSLQTSEIKEEEKELRRTTYKLQVKNEEVKNMSLELNSKLESLLEEKILLQQKVKYLEEQLTNLIQNQPETPEHPEVTSLKTFVEKQDNSIKDLLQTVEDQYKQLNQQHSQIKEIENQLRRTSIQEPTEISLSSKPRAPRTTPFLQLNEIRNVKHDGIPAECTTIYNRGEHTSGMYAIRPSNSQVFHVYCDVISGSPWTLIQHRIDGSQNFNETWENYKYGFGRLDGEFWLGLEKIYSIVKQSNYVLRIELEDWKDNKHYIEYSFYLGNHETNYTLHLVAITGNVPNAIPENKDLVFSTWDHKAKGHFNCPEGYSGGWWWHDECGENNLNGKYNKPRAKSKPERRRGLSWKSQNGRLYSIKSTKMLIHPTDSESFE [Q9Y5C1]
hTERT-HMEC; [8]
  percentage of EdU-negative: 4.63 ± 0.83%
hTERT-HMEC; [9]
  percentage of EdU-negative: 6.34 ± 0.5%
MCF7; [8]
  percentage of EdU-negative: 25.5 ± 1.9%
MCF7; [9]
  percentage of EdU-negative: 25.9 ± 2.1%

## MFWKLSLSLFLVAVLVKVAEARKNRPAGAIPSPYKDGSSNNSERWQHQIKEVLASSQEALVVTERKYLKSDWCKTQPLRQTVSEEGCRSRTILNRFCYGQCNSFYIPRHVKKEEESFQSCAFCKPQRVTSVLVELECPGLDPPFRLKKIQKVKQCRCMSVNLSDSDKQ [Q9H772]
hTERT-HMEC; [10]
  percentage of EdU-negative: 5.28 ± 0.078%
hTERT-HMEC; [11]
  percentage of EdU-negative: 5.14 ± 0.38%
MCF7; [10]
  percentage of EdU-negative: 22.3 ± 1.6%
MCF7; [11]
  percentage of EdU-negative: 27.2 ± 0.92%

## MGAAARLSAPRALVLWAALGAAAHIGPAPDPEDWWSYKDNLQGNFVPGPPFWGLVNAAWSLCAVGKRQSPVDVELKRVLYDPFLPPLRLSTGGEKLRGTLYNTGRHVSFLPAPRPVVNVSGGPLLYSHRLSELRLLFGARDGAGSEHQINHQGFSAEVQLIHFNQELYGNFSAASRGPNGLAILSLFVNVASTSNPFLSRLLNRDTITRISYKNDAYFLQDLSLELLFPESFGFITYQGSLSTPPCSETVTWILIDRALNITSLQMHSLRLLSQNPPSQIFQSLSGNSRPLQPLAHRALRGNRDPRHPERRCRGPNYRLHVDGVPHGR
hTERT-HMEC; protein concentration 0.021 µM
  percentage of EdU-negative: 4.83 ± 0.27%
hTERT-HMEC; protein concentration 0.21 µM
  percentage of EdU-negative: 7.53 ± 1.3%
MCF7; protein concentration 0.021 µM
  percentage of EdU-negative: 25.5 ± 1.3%
MCF7; protein concentration 0.21 µM
  percentage of EdU-negative: 24.9 ± 0.45%
